The results in this text go back to the Human Domainome abundance scans (Beltran et al. 2025).

To fix the notation:
B1: Heterogeneous nuclear ribonucleoprotein U-like protein 2, residues 1 to 40; numbered along this chain, Q1KMD3 (parent)
chain: MEVKRLKVTELRSELQRRGLDSRGLKVDLAQRLQEALDAE
B2: Membrane-associated guanylate kinase, WW and PDZ domain-containing protein 3, residues 287 to 329; numbered along this chain, Q5TCQ9 (parent)
chain: MRDETLEPLPKNWEMAYTDTGMIYFIDHNTKTTTWLDPRLCKK

± gives the uncertainty stated by the source.

In the first data set the parent is B1. As to the kind of experiment: abundance fitness (aPCA) (normalised: wild type 0, dead -1); higher = more abundant; growth selection in yeast, the domain comes from the species named. Particulars: Homo sapiens.
As for E40D, the abundance fitness is -0.122 ± 0.12.

On to E40R, for which the abundance fitness was -0.381 ± 0.056.

Turning to E40C, the abundance fitness was -0.017 ± 0.41.

For E40V, the abundance fitness was -0.529 ± 0.084.

As for E40P, the abundance fitness is -0.543 ± 0.28.

With E40N, the abundance fitness was -0.253 ± 0.17.

Regarding E40S, the abundance fitness was -0.311 ± 0.063.

For E40H, the abundance fitness was -0.545 ± 0.11.

Take E40Y: the abundance fitness is -0.518 ± 0.22.

Turning to E40G, the abundance fitness is -0.224 ± 0.063.

On to E40L, for which the abundance fitness was -0.849 ± 0.082.

In the case of E40T, the abundance fitness is -0.405 ± 0.22.

As for E40I, the abundance fitness is -0.641 ± 0.1.

E40W: the abundance fitness was -1.14 ± 0.087.

Regarding A39W, the abundance fitness is -0.263 ± 0.061.

With A39Y, the abundance fitness is -0.367 ± 0.098.

Consider A39V, for which the abundance fitness is -0.132 ± 0.059.

As for A39T, the abundance fitness is -0.088 ± 0.061.

Variants of B2 are the subject of another data set. The description is as above. The conditions noted are these: Homo sapiens.
Take D19S: the abundance fitness was -0.019 ± 0.035.

As to D19R, the abundance fitness was -0.091 ± 0.045.

As for D19I, the abundance fitness was -0.536 ± 0.15.

Take D19T: the abundance fitness is -0.067 ± 0.044.

As for D19E, the abundance fitness was -0.001 ± 0.039.

In the case of D19Y, the abundance fitness was -0.173 ± 0.22.

In the case of D19A, the abundance fitness was -0.047 ± 0.033.

For D19C, the abundance fitness was -0.122 ± 0.054.

Take D19Q: the abundance fitness was -0.055 ± 0.079.

As to D19P, the abundance fitness was -0.07 ± 0.052.

Regarding D19K, the abundance fitness was -0.034 ± 0.053.

On to T18C, for which the abundance fitness was -0.223 ± 0.097.

In the case of T18M, the abundance fitness is -0.335 ± 0.044.

For the variant T18A, the abundance fitness is -0.151 ± 0.035.

T18P: the abundance fitness was -1.03 ± 0.13.

In the case of T18S, the abundance fitness is -0.128 ± 0.044.

Take T18K: the abundance fitness is -0.539 ± 0.23.

Take T18G: the abundance fitness was -0.244 ± 0.029.

Turning to T18E, the abundance fitness was -0.389 ± 0.038.

For T18Q, the abundance fitness was -0.624 ± 0.13.

As to T18N, the abundance fitness is -0.391 ± 0.46.

On to T18W, for which the abundance fitness is -0.676 ± 0.054.

Consider T18L, for which the abundance fitness is -0.471 ± 0.063.

Turning to T18R, the abundance fitness was -0.7 ± 0.035.

Regarding M1G, the abundance fitness was -0.057 ± 0.032.

Take M1I: the abundance fitness is -0.152 ± 0.27.

With M1Q, the abundance fitness is -0.253 ± 0.12.

M1Y: the abundance fitness was -0.1 ± 0.11.

As to M1L, the abundance fitness was -0.074 ± 0.042.

Regarding M1E, the abundance fitness was found to be 0.001 ± 0.038.

With M1S, the abundance fitness is -0.064 ± 0.096.

For the variant M1N, the abundance fitness was -0.213 ± 0.13.

M1V: the abundance fitness was -0.089 ± 0.038.

As for M1D, the abundance fitness is -0.026 ± 0.061.

In the case of M1K, the abundance fitness is 0.025 ± 0.047.

On to M1T, for which the abundance fitness is -0.06 ± 0.039.

For M1R, the abundance fitness is -0.056 ± 0.035.

As for K11N, the abundance fitness is -0.118 ± 0.093.

As for K11F, the abundance fitness is -0.21 ± 0.11.

K11Q: the abundance fitness is -0.041 ± 0.044.

Consider K11H, for which the abundance fitness is -0.08 ± 0.037.

As to K11R, the abundance fitness is -0.049 ± 0.03.

For the variant K11P, the abundance fitness turned out to be 0.007 ± 0.049.

Turning to K11I, the abundance fitness was -0.271 ± 0.069.

In the case of K11C, the abundance fitness is -0.137 ± 0.039.

For the variant K11A, the abundance fitness was -0.033 ± 0.039.

As to K11S, the abundance fitness was -0.068 ± 0.034.

For K11M, the abundance fitness was -0.161 ± 0.045.

Regarding K11D, the abundance fitness is -0.092 ± 0.086.

Take K11E: the abundance fitness amounted to 0.024 ± 0.033.

Regarding K11L, the abundance fitness is -0.08 ± 0.038.

Regarding K11T, the abundance fitness is -0.068 ± 0.043.

Regarding K11V, the abundance fitness was -0.109 ± 0.037.

On to G21R, for which the abundance fitness was -0.237 ± 0.033.

With G21P, the abundance fitness is -0.682 ± 0.081.

As to G21W, the abundance fitness is -0.782 ± 0.068.

On to G21K, for which the abundance fitness is -0.172 ± 0.066.

G21V: the abundance fitness was -1.18 ± 0.077.

As to G21Q, the abundance fitness was -0.222 ± 0.059.

G21A: the abundance fitness is -0.312 ± 0.036.

In the case of G21T, the abundance fitness was -0.689 ± 0.061.

For the variant G21L, the abundance fitness is -0.67 ± 0.036.

As for G21S, the abundance fitness is -0.487 ± 0.066.

Regarding G21E, the abundance fitness is -0.215 ± 0.039.

For the variant G21D, the abundance fitness was -0.241 ± 0.091.

Regarding G21M, the abundance fitness is -0.46 ± 0.067.

As for E7G, the abundance fitness was 0.013 ± 0.032.

On to E7A, for which the abundance fitness is -0.076 ± 0.038.

Regarding E7K, the abundance fitness was -0.101 ± 0.045.

With E7C, the abundance fitness was -0.324 ± 0.067.

Turning to E7D, the abundance fitness is -0.113 ± 0.078.

As to E7I, the abundance fitness was -0.218 ± 0.054.

For the variant E7V, the abundance fitness was -0.09 ± 0.04.

Consider E7W, for which the abundance fitness is -0.24 ± 0.044.

E7N: the abundance fitness is -0.238 ± 0.069.

As for E7R, the abundance fitness was -0.084 ± 0.033.

With E7P, the abundance fitness amounted to 0.014 ± 0.049.

Consider E7M, for which the abundance fitness is -0.145 ± 0.038.

On to E7S, for which the abundance fitness was -0.049 ± 0.044.

For E7F, the abundance fitness is -0.327 ± 0.045.

For E7Q, the abundance fitness is -0.04 ± 0.041.

For the variant E7L, the abundance fitness is -0.115 ± 0.035.

As for T5E, the abundance fitness was -0.046 ± 0.037.

On to T5D, for which the abundance fitness was -0.02 ± 0.054.

For T5C, the abundance fitness was -0.123 ± 0.09.

For the variant T5M, the abundance fitness came out at 0.251 ± 0.14.

For the variant T5A, the abundance fitness is -0.04 ± 0.042.

Regarding T5F, the abundance fitness is -0.384 ± 0.16.

As for T5N, the abundance fitness was 0.125 ± 0.2.

T5R: the abundance fitness is -0.064 ± 0.036.

For the variant T5W, the abundance fitness was -0.303 ± 0.062.

T5K: the abundance fitness worked out at 0.072 ± 0.057.

In the case of T5Y, the abundance fitness is -0.19 ± 0.056.

As to T5H, the abundance fitness was -0.059 ± 0.054.

In the case of T5V, the abundance fitness is -0.064 ± 0.033.

Regarding T5Q, the abundance fitness worked out at 0.012 ± 0.058.

As to T5G, the abundance fitness was -0.05 ± 0.028.

As for T5P, the abundance fitness was -0.023 ± 0.036.

For the variant E14Y, the abundance fitness was -0.368 ± 0.12.

In the case of E14P, the abundance fitness is -0.868 ± 0.064.

Turning to E14S, the abundance fitness was -0.12 ± 0.033.

With E14G, the abundance fitness is -0.224 ± 0.029.

As for E14Q, the abundance fitness is -0.087 ± 0.051.

On to E14K, for which the abundance fitness is -0.262 ± 0.036.

E14R: the abundance fitness was -0.273 ± 0.035.

In the case of E14H, the abundance fitness was -0.429 ± 0.066.

E14W: the abundance fitness was -0.834 ± 0.056.

Consider E14L, for which the abundance fitness was -0.456 ± 0.095.

In the case of E14I, the abundance fitness is -0.39 ± 0.066.

As to E14M, the abundance fitness was -0.346 ± 0.042.

On to E14A, for which the abundance fitness was -0.132 ± 0.042.

Consider E14N, for which the abundance fitness is -0.372 ± 0.065.

On to E14V, for which the abundance fitness was -0.346 ± 0.043.

As to E14F, the abundance fitness was -1.06 ± 0.27.

As to Y17A, the abundance fitness was found to be 0.026 ± 0.047.

For Y17G, the abundance fitness is -0.199 ± 0.033.

On to Y17K, for which the abundance fitness is -0.03 ± 0.056.

On to Y17Q, for which the abundance fitness is -0.025 ± 0.071.

As for Y17P, the abundance fitness is -0.376 ± 0.039.

Consider Y17H, for which the abundance fitness is -0.121 ± 0.1.

On to Y17C, for which the abundance fitness is -0.052 ± 0.041.

In the case of Y17S, the abundance fitness was -0.024 ± 0.043.

As to Y17D, the abundance fitness was -0.323 ± 0.058.

For the variant Y17E, the abundance fitness was 0.031 ± 0.037.

As for Y17V, the abundance fitness came out at 0 ± 0.034.

For Y17W, the abundance fitness is -0.043 ± 0.037.

Take Y17R: the abundance fitness stood at 0.054 ± 0.029.

On to Y17L, for which the abundance fitness is -0.034 ± 0.04.

For Y17N, the abundance fitness is -0.194 ± 0.068.

As for Y17F, the abundance fitness was -0.043 ± 0.066.

In the case of D3N, the abundance fitness was -0.148 ± 0.067.

Consider D3M, for which the abundance fitness was -0.188 ± 0.035.

Regarding D3A, the abundance fitness was -0.089 ± 0.034.

Turning to D3W, the abundance fitness is -0.336 ± 0.039.

On to D3Q, for which the abundance fitness was -0.074 ± 0.044.

Regarding D3R, the abundance fitness was -0.127 ± 0.032.

As for D3S, the abundance fitness was -0.067 ± 0.036.

On to D3P, for which the abundance fitness is -0.072 ± 0.053.

Regarding D3I, the abundance fitness was -0.213 ± 0.1.

On to D3F, for which the abundance fitness was -0.161 ± 0.065.

For the variant D3G, the abundance fitness is -0.065 ± 0.036.

With D3E, the abundance fitness was -0.039 ± 0.036.

On to D3L, for which the abundance fitness was -0.175 ± 0.043.

As for D3K, the abundance fitness was -0.046 ± 0.051.

In the case of D3Y, the abundance fitness is -0.367 ± 0.12.

Consider D3T, for which the abundance fitness was -0.12 ± 0.042.

Consider D3C, for which the abundance fitness was -0.164 ± 0.093.

On to L6R, for which the abundance fitness is -0.026 ± 0.032.

L6T: the abundance fitness is -0.018 ± 0.044.
